The numbers were not newly measured in publication PMC3562316, which cites them from elsewhere.

The data set concerns the target IGF1R (Homo sapiens) (UniProt P08069).

A word on the Kd: it is the concentration at which binding is half-saturated. For IGF-2 (from UniProt P01344), the Kd was 0.2 nM.
